Target: mouse PIEZO1-R2482H (mouse) (UniProt E2JF22)
Assay: cryo-EM structure

mouse PIEZO1-R2482H, E2JF22 1-2547
stoichiometry N: 3
